According to patent US20140212436A1:

Key:
Test in all cases: Biacore
[1] = biological target: human H131 FcγRIIa (human) (UniProt P12318)
[2] = biological target: recombinant human FcγRIIb protein (human) (UniProt P31994)
FcγRIIaR (human) = FcγRIIaR (human) (UniProt P12318)
[3] = biological target: human V158 FcγRIIIa (human) (UniProt P08637)
human FcγRI (human) = human FcγRI (human) (UniProt P12314)
Sequence of human FcγRI (human) (P12314 16-288 limits assumed): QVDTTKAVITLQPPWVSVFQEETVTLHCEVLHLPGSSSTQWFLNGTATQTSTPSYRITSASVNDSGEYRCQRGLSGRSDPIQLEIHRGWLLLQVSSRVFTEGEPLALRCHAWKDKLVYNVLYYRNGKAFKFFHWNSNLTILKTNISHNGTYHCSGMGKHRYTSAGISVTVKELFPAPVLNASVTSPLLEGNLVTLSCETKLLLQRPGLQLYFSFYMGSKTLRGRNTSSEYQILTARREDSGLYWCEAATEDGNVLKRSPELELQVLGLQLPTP

Sequence of FcγRIIaR (human) (P12318 34-217 H167R limits assumed): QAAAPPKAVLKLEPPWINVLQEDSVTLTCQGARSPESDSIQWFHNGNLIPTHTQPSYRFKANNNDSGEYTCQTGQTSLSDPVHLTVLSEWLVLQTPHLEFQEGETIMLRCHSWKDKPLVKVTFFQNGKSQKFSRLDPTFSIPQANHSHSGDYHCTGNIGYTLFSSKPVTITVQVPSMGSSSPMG
Sequence of human V158 FcγRIIIa (human) (P08637 other isoform, or with tags, fused parts or gaps limits assumed): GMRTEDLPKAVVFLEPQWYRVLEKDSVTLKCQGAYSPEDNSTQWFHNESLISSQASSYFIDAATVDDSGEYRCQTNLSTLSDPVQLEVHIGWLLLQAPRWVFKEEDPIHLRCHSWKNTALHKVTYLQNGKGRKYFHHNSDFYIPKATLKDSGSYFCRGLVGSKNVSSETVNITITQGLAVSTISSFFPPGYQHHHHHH
Sequence of recombinant human FcγRIIb protein (human) (P31994 46-217 limits assumed): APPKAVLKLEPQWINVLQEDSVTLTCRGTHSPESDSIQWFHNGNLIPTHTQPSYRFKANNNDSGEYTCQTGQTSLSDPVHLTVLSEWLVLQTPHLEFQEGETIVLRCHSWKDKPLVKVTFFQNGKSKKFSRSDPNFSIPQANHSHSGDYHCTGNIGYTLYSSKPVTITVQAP
Sequence of human H131 FcγRIIa (human) (P12318 other isoform, or with tags, fused parts or gaps limits assumed): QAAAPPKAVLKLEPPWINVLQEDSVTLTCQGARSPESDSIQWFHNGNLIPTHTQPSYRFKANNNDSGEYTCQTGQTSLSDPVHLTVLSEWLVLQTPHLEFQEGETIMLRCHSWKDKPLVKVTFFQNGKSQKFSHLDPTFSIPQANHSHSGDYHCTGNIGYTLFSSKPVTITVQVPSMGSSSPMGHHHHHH

Row | Substance | Fold [1] | Kd [1] | Fold [2] | Kd [2] | Fold (FcγRIIaR (human)) | Kd (FcγRIIaR (human)) | Fold [3] | Kd [3] | Fold (human FcγRI (human)) | Kd (human FcγRI (human))
1 | G236S (antibody) | 3.76 | 172 nM | 1.02 | 1440 nM | 2.33 | 369 nM | 0.00367 | 52200 nM | 0.0268 | 12.3 nM
2 | L235Y/S267E/L328F (antibody) | 0.758 | 853 nM | 187 | 7.83 nM | 171 | 5.02 nM | – | – | 0.00436 | 75.5 nM
3 | L234F (antibody) | – | – | 0.409 | 3590 nM | 0.228 | 3760 nM | – | – | 0.0362 | 9.11 nM
4 | S267E/A327D (antibody) | – | – | 21.2 | 69.1 nM | 16.7 | 51.3 nM | 0.00199 | 96300 nM | 1.66 | 0.198 nM
5 | L235D/S267E/L328F (antibody) | 0.275 | 2350 nM | 80.4 | 18.2 nM | 133 | 6.45 nM | – | – | 0.00057 | 573 nM
6 | G236D/S267E/H268E (antibody) | 0.103 | 6300 nM | 110 | 13.4 nM | 29.9 | 28.7 nM | – | – | 0.0902 | 3.65 nM
7 | L234E/S267E (antibody) | – | – | 15.1 | 97 nM | 10.7 | 80.4 nM | – | – | 0.131 | 2.51 nM
8 | L234E/S267E/L328F (antibody) | 0.0725 | 8920 nM | 195 | 7.53 nM | 174 | 4.93 nM | – | – | 0.0425 | 7.75 nM
9 | L234D/S267E (antibody) | – | – | 21.7 | 67.8 nM | 12.7 | 67.7 nM | 0.14 | 1370 nM | 0.0286 | 11.5 nM
10 | S267E/A327E (antibody) | 2.66 | 243 nM | 30.9 | 47.5 nM | 29.3 | 29.3 nM | 0.00894 | 21400 nM | 2.3 | 0.143 nM
11 | L235F/S267E (antibody) | 0.402 | 1610 nM | 28.4 | 51.7 nM | 32.5 | 26.4 nM | – | – | 0.0176 | 18.7 nM
12 | L235Y/S239D/S267E (antibody) | 1.05 | 617 nM | 116 | 12.6 nM | 98.9 | 8.68 nM | 2.6 | 73.5 nM | 1.07 | 0.307 nM
13 | L235Y/S267E (antibody) | 0.941 | 687 nM | 37.2 | 39.4 nM | 37.5 | 22.9 nM | – | – | 0.00347 | 95 nM
14 | G237D/S267E (antibody) | – | – | 17 | 86.1 nM | 13.6 | 63.1 nM | – | – | 0.0874 | 3.77 nM
15 | S267E/L328Y (antibody) | 1.34 | 481 nM | 43.1 | 34.1 nM | 122 | 7.06 nM | – | – | 0.224 | 1.47 nM
16 | L235Y (antibody) | 1.35 | 479 nM | 1.05 | 1400 nM | 1.28 | 669 nM | 0.504 | 380 nM | 0.00232 | 142 nM
17 | S267A (antibody) | 1.22 | 530 nM | – | 408 nM | 4.29 | 200 nM | 0.952 | 201 nM | 1.15 | 0.287 nM
18 | L234F/S267E (antibody) | 0.509 | 1270 nM | 26.4 | 55.7 nM | 20.7 | 41.6 nM | 0.0938 | 2040 nM | 0.661 | 0.498 nM
19 | IgG1/2ELLGG_S267E/L328F (antibody) | 0.993 | 651 nM | 221 | 6.63 nM | 269 | 3.19 nM | – | – | 2.35 | 0.14 nM
20 | G236N/S267E (antibody) | – | – | 19.8 | 74.2 nM | 3.27 | 263 nM | – | – | 0.0355 | 9.27 nM
21 | S239Q (antibody) | – | – | 0.729 | 2010 nM | 0.853 | 1010 nM | – | – | – | –
22 | G236F (antibody) | – | – | 0.0147 | 100000 nM | 0.00859 | 100000 nM | – | – | – | –
23 | S239N (antibody) | – | – | 1.45 | 1010 nM | 0.867 | 990 nM | – | – | – | –
